# From the supplement of paper PMC12764529
# ± gives the half width of the 95% confidence interval.
# How the values were obtained:
# [1] = folding stability dG unfold from trypsin proteolysis; higher = more stable
# Procedure, shortened: (§1)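 Designed mini-proteins (under 80 residues, no cysteine) in a PA-tagged cDNA display construct were digested with trypsin and chymotrypsin. Each protease was used at 11 concentrations (threefold dilutions) plus a no-protease condition, followed by sequencing. K50 was inferred by Bayesian fitting of sequencing counts, and unfolding free energy was derived against a sequence-predicted unfolded-state K50 and a shared folded-state K50, per protease or combined. Only designs with AlphaFold2 dimer inter-PAE above 15 were kept.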
# [2] = folding stability dG unfold from chymotrypsin proteolysis; higher = more stable
# Procedure, shortened: as §1
# [3] = folding stability dG unfold (combined trypsin and chymotrypsin); higher = more stable
# Procedure, shortened: as §1
sequence,measurement,setting,value
SAGGSAGGSGSMKVYTHNVPPGQELTITITRGSSSTTLTFPPNTTVTITVPTSSPATITLTAPSAGGSAGGS [r12_550_JUSTAS],folding stability dG unfold,[1],1.39 ± 0.031 kcal/mol
same,folding stability dG unfold,[2],1.87 ± 0.054 kcal/mol
same,folding stability dG unfold,[3],1.74 ± 0.07 kcal/mol
SAGGSAGGSGSSTEVTTTTLPDTSYTTTNSTTTTFSPDQPEAVEAGLPVPSTVTTTTTTSPAGSAGGSAGGS [r20_138_JUSTAS],folding stability dG unfold,[1],0.918 ± 0.056 kcal/mol
same,folding stability dG unfold,[2],0.0599 ± 0.1 kcal/mol
same,folding stability dG unfold,[3],0.59 ± 0.12 kcal/mol
SAGGSAGGSGSTVVEVEFPDARIVITVEPPGVLTVTVERPPFPVETVRLPDMTVEEAVAYALASAGGSAGGS [r20_8_JUSTAS],folding stability dG unfold,[1],1.76 ± 0.053 kcal/mol
same,folding stability dG unfold,[2],1.14 ± 0.098 kcal/mol
same,folding stability dG unfold,[3],1.48 ± 0.074 kcal/mol
SAGGSAGGSIKPGQKVKIEIKVEEVDGKLVITAKVYNKDGKLIYEAEIVIENGKIKEVKITPPSAGGSAGGS [r12_264_TrROS_Hall],folding stability dG unfold,[1],2.58 ± 0.16 kcal/mol
same,folding stability dG unfold,[2],3.11 ± 0.31 kcal/mol
same,folding stability dG unfold,[3],2.9 ± 0.34 kcal/mol
SAGGSAGGSIPEILKKIGISPEVVTEVEVTPVEKLPDSLVVKVTYTYKLPNGTTETKTVTVPIGSAGGSAGG [r6_776_JUSTAS],folding stability dG unfold,[1],2.14 ± 0.091 kcal/mol
same,folding stability dG unfold,[2],2.76 ± 0.034 kcal/mol
same,folding stability dG unfold,[3],2.66 ± 0.13 kcal/mol
SAGGSAGGSIRIIFPVDNPEQAENIAEEIAERFGIQIEDIEVEQVPNGMYIVTFEVKIPPEMISAGGSAGGS [r12_577_TrROS],folding stability dG unfold,[1],2.41 ± 0.13 kcal/mol
same,folding stability dG unfold,[2],2.28 ± 0.036 kcal/mol
same,folding stability dG unfold,[3],2.38 ± 0.096 kcal/mol
SAGGSAGGSIRRDENGNFRVRIKVRFPGNGRKRTIEIPFDNATLEEIRKQAIDHGIRPIEIIPSAGGSAGGS [r12_792_TrROS],folding stability dG unfold,[1],0.993 ± 0.052 kcal/mol
same,folding stability dG unfold,[2],1.35 ± 0.053 kcal/mol
same,folding stability dG unfold,[3],1.24 ± 0.047 kcal/mol
SAGGSAGGSISQIKSKIKKILEEKGLKPTKIVIKKTEKLKNKIKVEVEVEIGKGPKISMIIEIESAGGSAGG [r6_841_JUSTAS],folding stability dG unfold,[1],3.89 ± 0.21 kcal/mol
same,folding stability dG unfold,[2],2.43 ± 0.16 kcal/mol
same,folding stability dG unfold,[3],3.19 ± 0.22 kcal/mol
SAGGSAGGSITIEIPGASSLEEAIEQAEVVVNEIVKKGYPGKPIKVTVILPGTGEAFTFEVPLESAGGSAGG [r6_237_TrMRF],folding stability dG unfold,[1],2.02 ± 0.11 kcal/mol
same,folding stability dG unfold,[2],2.4 ± 0.047 kcal/mol
same,folding stability dG unfold,[3],2.19 ± 0.12 kcal/mol
SAGGSAGGSIWIPPNHSVEEFAKEIQDKGNAEVKRDEPGWYKIKSKNNKPKKRIRFQANPEQFSAGGSAGGS [r20_236_TrROS],folding stability dG unfold,[1],-0.163 ± 0.5 kcal/mol
same,folding stability dG unfold,[2],0.24 ± 0.53 kcal/mol
same,folding stability dG unfold,[3],-0.046 ± 0.43 kcal/mol
SAGGSAGGSKAEVFETPDGLVVVVVPTEDSVRAFVFFPDGYIAEFDFPTGKIVRIFSPDEEIASAGGSAGGS [r12_235_TrMRF],folding stability dG unfold,[1],2.8 ± 0.09 kcal/mol
same,folding stability dG unfold,[2],3.55 ± 0.052 kcal/mol
same,folding stability dG unfold,[3],3.27 ± 0.079 kcal/mol
SAGGSAGGSKAKIEVLEVFPDYIVYKIETENPVIAVIVPLPNGKVKIFVFNPNGEPIAEFELGSAGGSAGGS [r12_1061_TrMRF],folding stability dG unfold,[1],2.04 ± 0.18 kcal/mol
same,folding stability dG unfold,[2],3.88 ± 0.062 kcal/mol
same,folding stability dG unfold,[3],3.4 ± 0.17 kcal/mol
SAGGSAGGSKEIVIKVNVSEEDLKEKAEELLKKLEELLPPGAKIKKIEIEYDEETGELVIKIESAGGSAGGS [r12_308_TrROS_Hall],folding stability dG unfold,[1],2.49 ± 0.22 kcal/mol
same,folding stability dG unfold,[2],1.94 ± 0.15 kcal/mol
same,folding stability dG unfold,[3],2.26 ± 0.18 kcal/mol
SAGGSAGGSKGVKELVIVVPPDKPEKIEEFLKKLRDEYAKDIKVLEVKETPDGGYIAKIKITDSAGGSAGGS [r12_91_TrMRF],folding stability dG unfold,[1],1.4 ± 0.041 kcal/mol
same,folding stability dG unfold,[2],1.96 ± 0.071 kcal/mol
same,folding stability dG unfold,[3],1.85 ± 0.12 kcal/mol
SAGGSAGGSKIEIHVQVSPELSPEEALERIRREIEEALPEELKDISLDDIIITVYPSHPDVPLSAGGSAGGS [r12_384_TrMRF],folding stability dG unfold,[1],1.09 ± 0.047 kcal/mol
same,folding stability dG unfold,[2],-0.0223 ± 0.053 kcal/mol
same,folding stability dG unfold,[3],0.643 ± 0.099 kcal/mol
SAGGSAGGSKIKIYPYSTKGKNEVYYLIETENNYLYIKVTIYYDPKTGKPVKIEIKEIFTLPKSAGGSAGGS [r12_70_TrMRF],folding stability dG unfold,[1],2.44 ± 0.09 kcal/mol
same,folding stability dG unfold,[2],3.07 ± 0.12 kcal/mol
same,folding stability dG unfold,[3],2.57 ± 0.26 kcal/mol
SAGGSAGGSKIPPNQFIVRIEIKRRKPNGEKRKHEIIIPVGMPLDTLRDHAPPGYEITDIEVISAGGSAGGS [r12_597_TrROS],folding stability dG unfold,[1],1.17 ± 0.023 kcal/mol
same,folding stability dG unfold,[2],1.8 ± 0.021 kcal/mol
same,folding stability dG unfold,[3],1.6 ± 0.05 kcal/mol
SAGGSAGGSKITIKLIKNGEIVEEKEIEDKKTGKKIKIKAIKKDGKLYLVIEVDGKKYVIPLPSAGGSAGGS [r12_994_TrROS_Hall],folding stability dG unfold,[1],2.02 ± 0.23 kcal/mol
same,folding stability dG unfold,[2],3.93 ± 0.089 kcal/mol
same,folding stability dG unfold,[3],3.57 ± 0.39 kcal/mol
SAGGSAGGSKKEYLVLVYNPATGEPFPILAPDDVPFEELAKKIADEILKGLPKDVKIEFVKLGSAGGSAGGS [r20_213_TrMRF],folding stability dG unfold,[1],0.808 ± 0.086 kcal/mol
same,folding stability dG unfold,[2],0.795 ± 0.061 kcal/mol
same,folding stability dG unfold,[3],0.874 ± 0.17 kcal/mol
SAGGSAGGSKKKITVKIEEVKLNPETGKLVLVKIKLPDGKELVFKTPEEIENLPGAEFEVYELSAGGSAGGS [r20_192_TrROS_Hall],folding stability dG unfold,[1],1.53 ± 0.14 kcal/mol
same,folding stability dG unfold,[2],1.47 ± 0.13 kcal/mol
same,folding stability dG unfold,[3],1.45 ± 0.27 kcal/mol
SAGGSAGGSKKKKKPKKKKYIVIKVDMSLEEVKKLISKLLGFEEGEKIEIVKVDPENKYIVIKSAGGSAGGS [r12_815_TrROS_Hall],folding stability dG unfold,[1],2.01 ± 0.072 kcal/mol
same,folding stability dG unfold,[2],2.35 ± 0.11 kcal/mol
same,folding stability dG unfold,[3],2.08 ± 0.27 kcal/mol
SAGGSAGGSKKKLTLTLKVEYVDEETGEKRTVTLTITAESEEEAKAALEELAKKLPPGARIEVSAGGSAGGS [r20_211_TrROS_Hall],folding stability dG unfold,[1],3.3 ± 0.16 kcal/mol
same,folding stability dG unfold,[2],4.44 ± 0.11 kcal/mol
same,folding stability dG unfold,[3],4.21 ± 0.19 kcal/mol
SAGGSAGGSKKKVKVVKVEKPEGDYYVVTVYYEDGKLLKKVVFPKGVKPEEVLEKVKKLVEEESAGGSAGGS [r12_798_TrMRF],folding stability dG unfold,[1],1.95 ± 0.043 kcal/mol
same,folding stability dG unfold,[2],2.82 ± 0.049 kcal/mol
same,folding stability dG unfold,[3],2.51 ± 0.076 kcal/mol
SAGGSAGGSKKPIPVKVIETKPDPEIGGITTVELEFPDGSKATFTSIEDIEKIPDIEVEIKLGSAGGSAGGS [r20_192_TrMRF],folding stability dG unfold,[1],0.591 ± 0.027 kcal/mol
same,folding stability dG unfold,[2],0.639 ± 0.043 kcal/mol
same,folding stability dG unfold,[3],0.648 ± 0.056 kcal/mol
SAGGSAGGSKKRTILIQFPNGSPEEAVDNIKNWLRALGNEPIPLEDVKIQWYPGNPGYFQIEISAGGSAGGS [r12_122_TrROS],folding stability dG unfold,[1],1.81 ± 0.027 kcal/mol
same,folding stability dG unfold,[2],2.94 ± 0.042 kcal/mol
same,folding stability dG unfold,[3],2.53 ± 0.12 kcal/mol
SAGGSAGGSKKVKIEINVVVPPGMTPEKAKQMAEEFAREIAEAYGGKDVKVKVRIMYIPPDQFSAGGSAGGS [r12_522_TrROS],folding stability dG unfold,[1],2.04 ± 0.084 kcal/mol
same,folding stability dG unfold,[2],2.19 ± 0.066 kcal/mol
same,folding stability dG unfold,[3],2.08 ± 0.13 kcal/mol
SAGGSAGGSKKVKVTIEYDKETGVVKVTVEDPETGEKYTVTAKFEFDKNGKLVKVEVVSIEKESAGGSAGGS [r12_791_TrROS_Hall],folding stability dG unfold,[1],2.71 ± 0.14 kcal/mol
same,folding stability dG unfold,[2],3.94 ± 0.11 kcal/mol
same,folding stability dG unfold,[3],3.67 ± 0.11 kcal/mol
SAGGSAGGSKLKPFPIKLPGDLSMTIVELPEDPRFIVTVWHPDGDKPIDSIEFEPDEFEANVGSAGGSAGGS [r20_190_TrMRF],folding stability dG unfold,[1],0.285 ± 0.023 kcal/mol
same,folding stability dG unfold,[2],0.793 ± 0.033 kcal/mol
same,folding stability dG unfold,[3],0.591 ± 0.078 kcal/mol
SAGGSAGGSKLTIMVKMDSAEDAEEEARSLLKELGIKPGMKEVKVSMFPRGNEYYAHVEIKFKSAGGSAGGS [r12_7_TrROS],folding stability dG unfold,[1],0.672 ± 0.038 kcal/mol
same,folding stability dG unfold,[2],0.759 ± 0.15 kcal/mol
same,folding stability dG unfold,[3],0.776 ± 0.12 kcal/mol
SAGGSAGGSKPEIRKIKIYTKEGGKKIIPVNGTVIEIDGKKYKVKPNDKIKVPKNVKKIEPEGSAGGSAGGS [r12_779_TrMRF],folding stability dG unfold,[1],-0.395 ± 0.25 kcal/mol
same,folding stability dG unfold,[2],0.153 ± 0.19 kcal/mol
same,folding stability dG unfold,[3],0.028 ± 0.22 kcal/mol
SAGGSAGGSKPEPVKPVKLKVKLPGGEYEVEAVELPKGVVLVRNPADNSLAVITPDRLVVLPLSAGGSAGGS [r12_737_TrMRF],folding stability dG unfold,[1],0.754 ± 0.024 kcal/mol
same,folding stability dG unfold,[2],0.0823 ± 0.14 kcal/mol
same,folding stability dG unfold,[3],0.468 ± 0.076 kcal/mol
